T1: ARHGEF11, O15085
T1 sequence (O15085 42-136, limits assumed, looked up): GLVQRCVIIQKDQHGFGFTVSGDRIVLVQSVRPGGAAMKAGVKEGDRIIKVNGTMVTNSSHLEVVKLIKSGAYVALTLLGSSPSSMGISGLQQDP

T2: CARD11, Q9BXL7
T2 sequence (Q9BXL7 662-765, limits assumed, looked up): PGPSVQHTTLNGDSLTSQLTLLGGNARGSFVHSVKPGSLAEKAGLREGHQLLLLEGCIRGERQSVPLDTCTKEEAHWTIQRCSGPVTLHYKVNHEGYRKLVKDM

T3: DVL3, Q92997
T3 sequence (Q92997 244-331, limits assumed, looked up): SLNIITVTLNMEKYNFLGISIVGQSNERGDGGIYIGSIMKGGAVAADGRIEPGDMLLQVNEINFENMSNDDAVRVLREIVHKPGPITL

T4: GRIP1_3, Q9Y3R0
T4 sequence (Q9Y3R0 247-346, limits assumed, looked up): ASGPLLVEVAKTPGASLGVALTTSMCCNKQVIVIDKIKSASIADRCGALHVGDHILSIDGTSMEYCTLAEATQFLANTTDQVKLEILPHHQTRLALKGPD

T5: GRIP1_7, Q9Y3R0
T5 sequence (Q9Y3R0 999-1096, limits assumed, looked up): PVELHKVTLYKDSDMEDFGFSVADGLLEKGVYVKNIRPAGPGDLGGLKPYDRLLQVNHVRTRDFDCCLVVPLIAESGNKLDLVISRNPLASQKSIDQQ

T6: HTRA3, P83110
T6 sequence (P83110 354-453, limits assumed, looked up): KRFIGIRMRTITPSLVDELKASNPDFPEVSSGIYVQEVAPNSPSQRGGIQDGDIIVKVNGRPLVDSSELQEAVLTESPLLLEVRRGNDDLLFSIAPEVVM

T7: LNX2_3, Q8N448
T7 sequence (Q8N448 463-564, limits assumed, looked up): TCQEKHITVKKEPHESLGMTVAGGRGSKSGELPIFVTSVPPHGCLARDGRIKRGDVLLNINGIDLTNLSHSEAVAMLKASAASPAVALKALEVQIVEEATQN

T8: LRRC7, Q96NW7
T8 sequence (Q96NW7 1440-1537, limits assumed, looked up): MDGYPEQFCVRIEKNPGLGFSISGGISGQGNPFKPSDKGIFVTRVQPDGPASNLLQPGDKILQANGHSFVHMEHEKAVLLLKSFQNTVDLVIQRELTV

T9: MPDZ_12, O75970
T9 sequence (O75970 1857-1958, limits assumed, looked up): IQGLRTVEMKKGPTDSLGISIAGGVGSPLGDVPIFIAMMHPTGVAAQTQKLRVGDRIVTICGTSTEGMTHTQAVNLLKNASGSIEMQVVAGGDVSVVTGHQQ

T10: RHPN1, Q8TCX5
T10 sequence (Q8TCX5 508-602, limits assumed, looked up): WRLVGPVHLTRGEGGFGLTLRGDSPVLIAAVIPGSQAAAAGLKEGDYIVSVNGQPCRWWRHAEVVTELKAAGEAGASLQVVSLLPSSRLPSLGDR

B1: XKR7, Q5GH72 (peptide)
chain: QELLEYETTV
B2: MARCHF9, Q86YJ5 (peptide)
chain: REVVMRVTTV
B3: COMMD3, Q9UBI1 (peptide)
chain: SKSLERATQL
B4: PPP1R3G, B7ZBB8 (peptide)
chain: LRYARPADAL

Each binder was assayed against T1, ARHGEF11, O15085 (assay: holdup assay). Conditions: plain residues with an end cap or a label only (N-terminal biotin on a linker: ado-ado).
Design: key: below the threshold = too weak to quantify, mostly under pKd 3.1 to 4

Binder | pKd
B1 | 4.56
B2 | 4.65
B3 | 4.57
B4 | below the threshold

What follows are binders tested against T2, CARD11, Q9BXL7 (assay: holdup assay). Conditions: plain residues with an end cap or a label only (N-terminal biotin on a linker: ado-ado).
Design: key: below the threshold = too weak to quantify, mostly under pKd 3.1 to 4

Binder | pKd
B1 | below the threshold
B2 | below the threshold
B3 | below the threshold
B4 | below the threshold

These binders were tested against DLG5_1, Q8TDM6 (assay: holdup assay). Conditions: plain residues with an end cap or a label only (N-terminal biotin on a linker: ado-ado).
Design: key: below the threshold = too weak to quantify, mostly under pKd 3.1 to 4

DLG5_1, Q8TDM6, sequence (Q8TDM6 617-713): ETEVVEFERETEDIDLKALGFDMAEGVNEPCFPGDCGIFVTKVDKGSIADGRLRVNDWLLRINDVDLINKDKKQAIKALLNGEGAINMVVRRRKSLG

Binder | pKd
B1 | 3.69
B2 | below the threshold
B3 | below the threshold
B4 | below the threshold

Each binder was assayed against T3, DVL3, Q92997 (assay: holdup assay). Conditions: plain residues with an end cap or a label only (N-terminal biotin on a linker: ado-ado).
Design: key: below the threshold = too weak to quantify, mostly under pKd 3.1 to 4

Binder | pKd
B1 | below the threshold
B2 | below the threshold
B3 | 3.58
B4 | below the threshold

These binders were tested against GIPC2, Q8TF65 (assay: holdup assay). Conditions: plain residues with an end cap or a label only (N-terminal biotin on a linker: ado-ado).
Design: key: below the threshold = too weak to quantify, mostly under pKd 3.1 to 4

GIPC2, Q8TF65, sequence (Q8TF65 112-203): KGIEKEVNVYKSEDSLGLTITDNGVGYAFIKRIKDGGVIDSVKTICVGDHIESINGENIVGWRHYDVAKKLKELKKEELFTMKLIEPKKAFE

Binder | pKd
B1 | 4.38
B2 | below the threshold
B3 | 3.49
B4 | below the threshold

Each binder was assayed against GRASP, Q7Z6J2 (assay: holdup assay). Conditions: plain residues with an end cap or a label only (N-terminal biotin on a linker: ado-ado).
Design: key: below the threshold = too weak to quantify, mostly under pKd 3.1 to 4

GRASP, Q7Z6J2, sequence (Q7Z6J2 96-193): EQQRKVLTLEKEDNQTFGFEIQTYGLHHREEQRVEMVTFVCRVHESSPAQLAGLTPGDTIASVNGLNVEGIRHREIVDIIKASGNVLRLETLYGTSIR

Binder | pKd
B1 | 4.12
B2 | 4.57
B3 | 4
B4 | 3.47

Each binder was assayed against T4, GRIP1_3, Q9Y3R0 (assay: holdup assay). Conditions: plain residues with an end cap or a label only (N-terminal biotin on a linker: ado-ado).
Design: key: below the threshold = too weak to quantify, mostly under pKd 3.1 to 4

Binder | pKd
B1 | below the threshold
B2 | below the threshold
B3 | below the threshold
B4 | below the threshold

The binders below were run against T5, GRIP1_7, Q9Y3R0 (assay: holdup assay). Conditions: plain residues with an end cap or a label only (N-terminal biotin on a linker: ado-ado).
Design: key: below the threshold = too weak to quantify, mostly under pKd 3.1 to 4

Binder | pKd
B1 | below the threshold
B2 | below the threshold
B3 | 3.51
B4 | below the threshold

Each binder was assayed against GRIP2_5, Q9C0E4 (assay: holdup assay). Conditions: plain residues with an end cap or a label only (N-terminal biotin on a linker: ado-ado).
Design: key: below the threshold = too weak to quantify, mostly under pKd 3.1 to 4

GRIP2_5, Q9C0E4, sequence (Q9C0E4 544-642): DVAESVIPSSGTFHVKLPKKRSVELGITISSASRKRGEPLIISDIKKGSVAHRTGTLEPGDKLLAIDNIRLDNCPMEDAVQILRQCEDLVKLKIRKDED

Binder | pKd
B1 | 3.48
B2 | below the threshold
B3 | below the threshold
B4 | below the threshold

These binders were tested against T6, HTRA3, P83110 (assay: holdup assay). Conditions: plain residues with an end cap or a label only (N-terminal biotin on a linker: ado-ado).
Design: key: below the threshold = too weak to quantify, mostly under pKd 3.1 to 4

Binder | pKd
B1 | below the threshold
B2 | 3.64
B3 | below the threshold
B4 | below the threshold

Each binder was assayed against IL16_1, Q14005 (assay: holdup assay). Conditions: plain residues with an end cap or a label only (N-terminal biotin on a linker: ado-ado).
Design: key: below the threshold = too weak to quantify, mostly under pKd 3.1 to 4

IL16_1, Q14005, sequence (Q14005 210-306): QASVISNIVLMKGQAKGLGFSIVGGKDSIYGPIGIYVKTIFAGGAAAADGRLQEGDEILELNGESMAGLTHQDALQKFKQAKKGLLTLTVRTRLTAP

Binder | pKd
B1 | 4.12
B2 | 4.17
B3 | below the threshold
B4 | below the threshold

What follows are binders tested against Inadl_10, Q8NI35 (assay: holdup assay). Conditions: plain residues with an end cap or a label only (N-terminal biotin on a linker: ado-ado).
Design: key: below the threshold = too weak to quantify, mostly under pKd 3.1 to 4

Inadl_10, Q8NI35, sequence (Q8NI35 1673-1763): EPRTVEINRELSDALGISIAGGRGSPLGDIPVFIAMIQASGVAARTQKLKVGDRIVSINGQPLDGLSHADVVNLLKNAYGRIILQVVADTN

Binder | pKd
B1 | below the threshold
B2 | 3.6
B3 | below the threshold
B4 | below the threshold

What follows are binders tested against LDB3, O75112 (assay: holdup assay). Conditions: plain residues with an end cap or a label only (N-terminal biotin on a linker: ado-ado).
Design: key: below the threshold = too weak to quantify, mostly under pKd 3.1 to 4

LDB3, O75112, sequence (O75112 1-94): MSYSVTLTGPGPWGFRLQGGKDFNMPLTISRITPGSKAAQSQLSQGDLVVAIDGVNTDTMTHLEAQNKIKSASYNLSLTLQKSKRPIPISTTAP

Binder | pKd
B1 | below the threshold
B2 | below the threshold
B3 | below the threshold
B4 | below the threshold

The binders below were run against LNX1_1, Q8TBB1 (assay: holdup assay). Conditions: plain residues with an end cap or a label only (N-terminal biotin on a linker: ado-ado).
Design: key: below the threshold = too weak to quantify, mostly under pKd 3.1 to 4

LNX1_1, Q8TBB1, sequence (Q8TBB1 261-371): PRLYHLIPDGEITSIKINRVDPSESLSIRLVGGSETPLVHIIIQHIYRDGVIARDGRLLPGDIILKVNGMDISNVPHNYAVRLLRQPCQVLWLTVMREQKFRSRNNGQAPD

Binder | pKd
B1 | 4.57
B2 | 4.41
B3 | 3.87
B4 | below the threshold

The binders below were run against LNX1_3, Q8TBB1 (assay: holdup assay). Conditions: plain residues with an end cap or a label only (N-terminal biotin on a linker: ado-ado).
Design: key: below the threshold = too weak to quantify, mostly under pKd 3.1 to 4

LNX1_3, Q8TBB1, sequence (Q8TBB1 500-596): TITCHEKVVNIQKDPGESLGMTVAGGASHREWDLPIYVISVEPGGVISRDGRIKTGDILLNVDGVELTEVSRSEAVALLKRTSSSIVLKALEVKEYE

Binder | pKd
B1 | below the threshold
B2 | below the threshold
B3 | below the threshold
B4 | below the threshold

Each binder was assayed against T7, LNX2_3, Q8N448 (assay: holdup assay). Conditions: plain residues with an end cap or a label only (N-terminal biotin on a linker: ado-ado).
Design: key: below the threshold = too weak to quantify, mostly under pKd 3.1 to 4

Binder | pKd
B1 | below the threshold
B2 | below the threshold
B3 | below the threshold
B4 | below the threshold

What follows are binders tested against T8, LRRC7, Q96NW7 (assay: holdup assay). Conditions: plain residues with an end cap or a label only (N-terminal biotin on a linker: ado-ado).
Design: key: below the threshold = too weak to quantify, mostly under pKd 3.1 to 4

Binder | pKd
B1 | below the threshold
B2 | below the threshold
B3 | below the threshold
B4 | below the threshold

These binders were tested against MAGI1_2, Q96QZ7 (assay: holdup assay). Conditions: plain residues with an end cap or a label only (N-terminal biotin on a linker: ado-ado).
Design: key: below the threshold = too weak to quantify, mostly under pKd 3.1 to 4

MAGI1_2, Q96QZ7, sequence (Q96QZ7 456-580): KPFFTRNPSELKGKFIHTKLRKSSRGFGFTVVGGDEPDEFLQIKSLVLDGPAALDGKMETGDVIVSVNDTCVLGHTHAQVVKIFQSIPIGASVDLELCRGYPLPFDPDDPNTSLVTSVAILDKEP

Binder | pKd
B1 | 3.6
B2 | 4.84
B3 | 3.85
B4 | below the threshold

The binders below were run against MAGI2_3, Q86UL8 (assay: holdup assay). Conditions: plain residues with an end cap or a label only (N-terminal biotin on a linker: ado-ado).
Design: key: below the threshold = too weak to quantify, mostly under pKd 3.1 to 4

MAGI2_3, Q86UL8, sequence (Q86UL8 600-682): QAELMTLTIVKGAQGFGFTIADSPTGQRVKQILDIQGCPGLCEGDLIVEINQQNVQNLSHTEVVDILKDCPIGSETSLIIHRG

Binder | pKd
B1 | below the threshold
B2 | 4.6
B3 | below the threshold
B4 | below the threshold

What follows are binders tested against T9, MPDZ_12, O75970 (assay: holdup assay). Conditions: plain residues with an end cap or a label only (N-terminal biotin on a linker: ado-ado).
Design: key: below the threshold = too weak to quantify, mostly under pKd 3.1 to 4

Binder | pKd
B1 | below the threshold
B2 | below the threshold
B3 | below the threshold
B4 | below the threshold

These binders were tested against NHERF4_1, Q86UT5-2 (assay: holdup assay). Conditions: plain residues with an end cap or a label only (N-terminal biotin on a linker: ado-ado).
Design: key: below the threshold = too weak to quantify, mostly under pKd 3.1 to 4

NHERF4_1, Q86UT5-2, sequence (Q86UT5 other isoform, or with tags, fused parts or gaps): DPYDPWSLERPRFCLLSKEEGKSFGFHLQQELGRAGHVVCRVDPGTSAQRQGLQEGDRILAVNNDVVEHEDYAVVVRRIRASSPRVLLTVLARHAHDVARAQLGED

Binder | pKd
B1 | below the threshold
B2 | 3.47
B3 | 4.23
B4 | 4.29

The binders below were run against NHERF4_2, Q86UT5 (assay: holdup assay). Conditions: plain residues with an end cap or a label only (N-terminal biotin on a linker: ado-ado).
Design: key: below the threshold = too weak to quantify, mostly under pKd 3.1 to 4

NHERF4_2, Q86UT5, sequence (Q86UT5 220-308): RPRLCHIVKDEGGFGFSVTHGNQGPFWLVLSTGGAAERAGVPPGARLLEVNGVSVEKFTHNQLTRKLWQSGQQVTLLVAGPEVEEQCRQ

Binder | pKd
B1 | below the threshold
B2 | 3.49
B3 | below the threshold
B4 | below the threshold

These binders were tested against NHERF4_4, Q86UT5 (assay: holdup assay). Conditions: plain residues with an end cap or a label only (N-terminal biotin on a linker: ado-ado).
Design: key: below the threshold = too weak to quantify, mostly under pKd 3.1 to 4

NHERF4_4, Q86UT5, sequence (Q86UT5 464-550): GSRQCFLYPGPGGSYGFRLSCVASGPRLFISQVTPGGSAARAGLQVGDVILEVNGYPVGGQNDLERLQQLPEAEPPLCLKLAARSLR

Binder | pKd
B1 | below the threshold
B2 | below the threshold
B3 | below the threshold
B4 | below the threshold

These binders were tested against PDZRN4_1, Q6ZMN7 (assay: holdup assay). Conditions: plain residues with an end cap or a label only (N-terminal biotin on a linker: ado-ado).
Design: key: below the threshold = too weak to quantify, mostly under pKd 3.1 to 4

PDZRN4_1, Q6ZMN7, sequence (Q6ZMN7 213-318): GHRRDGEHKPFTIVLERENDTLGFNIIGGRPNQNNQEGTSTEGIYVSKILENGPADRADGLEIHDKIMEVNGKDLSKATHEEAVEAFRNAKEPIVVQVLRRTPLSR

Binder | pKd
B1 | 4.55
B2 | 3.86
B3 | 3.89
B4 | below the threshold

The binders below were run against T10, RHPN1, Q8TCX5 (assay: holdup assay). Conditions: plain residues with an end cap or a label only (N-terminal biotin on a linker: ado-ado).
Design: key: below the threshold = too weak to quantify, mostly under pKd 3.1 to 4

Binder | pKd
B1 | 4.66
B2 | 3.91
B3 | 4.13
B4 | below the threshold

The binders below were run against SCRIB_1, Q14160 (assay: holdup assay). Conditions: plain residues with an end cap or a label only (N-terminal biotin on a linker: ado-ado).
Design: key: below the threshold = too weak to quantify, mostly under pKd 3.1 to 4

SCRIB_1, Q14160, sequence (Q14160 718-814): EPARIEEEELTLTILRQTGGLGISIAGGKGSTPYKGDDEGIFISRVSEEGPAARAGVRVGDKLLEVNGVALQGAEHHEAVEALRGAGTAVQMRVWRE

Binder | pKd
B1 | 4.41
B2 | 4.72
B3 | 3.83
B4 | below the threshold

What follows are binders tested against TJP1_2, Q07157 (assay: holdup assay). Conditions: plain residues with an end cap or a label only (N-terminal biotin on a linker: ado-ado).
Design: key: below the threshold = too weak to quantify, mostly under pKd 3.1 to 4

TJP1_2, Q07157, sequence (Q07157 181-274): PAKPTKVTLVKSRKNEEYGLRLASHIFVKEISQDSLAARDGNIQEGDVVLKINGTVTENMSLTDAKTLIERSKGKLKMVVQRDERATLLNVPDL

Binder | pKd
B1 | below the threshold
B2 | below the threshold
B3 | 3.51
B4 | below the threshold

The binders below were run against TJP1_3, Q07157 (assay: holdup assay). Conditions: plain residues with an end cap or a label only (N-terminal biotin on a linker: ado-ado).
Design: key: below the threshold = too weak to quantify, mostly under pKd 3.1 to 4

TJP1_3, Q07157, sequence (Q07157 416-512): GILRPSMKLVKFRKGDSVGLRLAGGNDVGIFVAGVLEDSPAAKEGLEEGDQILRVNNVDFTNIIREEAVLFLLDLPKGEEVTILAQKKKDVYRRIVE

Binder | pKd
B1 | below the threshold
B2 | below the threshold
B3 | 3.51
B4 | below the threshold
